Source: the DeepSol protein solubility set

assay: soluble on expression in E. coli; label from the status in PepcDB or PDB records

Sequence | soluble on expression in E. coli
MEARFAELLAAYCLEAQSGETVLVEAETPALPLLPHLKRALLRRGAYPLIRLSYPGEERDFLLFGGRWLEEVPEAELALYQRADKFLRVLSAENPLEAAAVDPALALRRQRAWRLLQEIRLGKRWALTLYPTVGYAVGAGMGTEEFRAYLERALFLDREDPVAAWQELSRFQEGLIRRLSAAKELRILAPGTDLRLSVAGRTWVNSDGRRNMPSGEVFTGPVEDSAEGEVRFNLPAFVGGRRVKGVYLRFARGQVVKARAKAGKAYLQAALATDEGARRLGEVGIGTNFALDRPTGLVLLDEKMGGTVHLALGRSYPEAGGRNESALHWDLVLSLREGRLLLDGTPLLEAGRFL | soluble
MLELKPPLVLLSGPAGFGEYLKLMDHRYVGGVLLKTVTLHPKEGNPTPRMADSDFYVINRIGLENPGIHAFVENIPELPVPMIASLGGDSFEEYLEVARVFKKVADRFYAVEFNFSCPNVKEGGLSIVKNAEEWKKLLNTLRKELPDSFLIAKVGVEGIFVEDAAEFVMKTGWDGITLVNTVRGLHFEKDTMILGGLSGPVLKPIALRAVYEVKKRFPELFVIASGGVYSVKDAEEFLKVGADVIGVGSALFKDPGVVEEIGKYLLEVKR | soluble
MAPPSQDVLKEIFNLYDEELDGKIDGTQVGDVARAAGLKPTQAMVTKAAGQEFKRKGEKRLTFEEWLPMYEQLAKEKEQGTYADFYEGLKVFDKEETGKILAAELRHILLALGERLSADEADELLKGVEDGEGMVKYEDFIKKVLAGPFPDQD | not soluble
MRRTLHNELQELRGNIRVYCRIRPALKNLENSDTSLINVNEFDDNSGVQSMEVTKIQNTAQVHEFKFDKIFDQQDTNVDVFKEVGQLVQSSLDGYNVCIFAYGQTGSGKTFTMLNPGDGIIPSTISHIFNWINKLKTKGWDYKVNCEFIEIYNENIVDLLRSDNNNKEDTSIGLKHEIRHDQETKTTTITNVTSCKLESEEMVEIILKKANKLRSTASTASNEHSSRSHSIFIIHLSGSNAKTGAHSYGTLNLVDLAGSERINVSQVVGDRLRETQNINKSLSCLGDVIHALGQPDSTKRHIPFRNSKLTYLLQYSLTGDSKTLMFVNISPSSSHINETLNSLRFASKVNSTRLVSRK | soluble
KLMKVNHAADAAEEGLVSDPLEWTGVRIGPGINGTIAQLPTLAGEEIIATRVVHSKTFHSLAAPNDRLHEGMVLVIHGTPDALERAIAKVGKQQDVPIEDTDLVYSRFTVSSKAVVGRKISDLDTVRSGFIISRLRRGDADVVPEPDDVLHYSDRVRVIAPANRMSEVRRFLGDSERSLADVD | not soluble
MGSDKIHHHHHHMADNFLSQEEVDALLRGVTNEQEDDTPALDPAGVREYNLATQERIVRGRMPTLEIINERFARLLRIGLFNFLRRTTEVSVGPVKISKYSEFIRNLVVPTNLNLVQMKPLRGTALMVFDPTLVFLIVDNLFGGDGRFHTRVEGRDFTQTEQRIIQRVLAIVFETYAKSWEPVYKLEFEYIRSEMNTQFANIATPNEVVVSTTFNIELGSASGEIHFCFPYSMIEPIRDLLTSPLQGEALGVDKRWVRLMTQQIQSAEVMLIADLAKAEMTLGDILNMKVGDVIPLSISEEIEAKVDNVPVMQCKYGVFNGQYALRVEKLLRSNSSEYVKGEVPDGD | not soluble
MAKKLLLVGGGHSNALVLKHWCRHPLADVELTLVSDVRQTPYSGMLPGYLAGFYSYGESHIDLAPLCASAGAIFVQDKAIAVNPEQNLLTTAEGRQLSFDCLSLDIGSTPFIDDIVGAEYGIPAKPVPQFLTAWLALLENIDQNRPKKVTLAIAGGGAGGVELAFNLQARLAKLFPAMGLDMQIWQRGAILLPHHSVQGRKLIERLLVKQNIAVLLNHPVTSIEPEFSPDDNPLTCYKLWSNDHWQSVNAVFLVTQASPAPWLAQSGLSLDSRGFVSVKPTLQSYSHGHIFAAGDVANMIDHPRPKAGVFAVRQGKPLFENLQHYLSHQTLKTFVPQSKYLSLLGTRDGRAIALWGPWASYGHCWWRLKDYIDRQFMAGFSA | soluble
MGSDKIHHHHHHMNTLTLEYIKSILPPRPDNSHKMTFGHVLNIAGSLHYRGAAYLSSLSALRVGAGYVTLASSPSVCDSVSALTPNIVTFALRTLSPLSVHSLQRTANLHLKDAQIVDVQTLSPQAVLQLRDKLTQASAISIGSGLSIGQSTDQCIDITAINTELTVDVDVTLCTEMSAEISTDLNSDLNSDLNSDLRSELPICNVIKDNQPHSNELIPPQGNHGFFYALLNEIQTCTKPVIFDADALNFISHLLNPPVPFGTTTVTLPNKSIITPHPKELARLLNMDVATLQTQRMHFARLAAKQLNTIVVLKGKNTVITDGNDVFINPTGNSALAKAGTGDVLTGMISGFCAQGVSPINAACLGVYLHGLAGNIAAEDLSQYGMLASDLLSYIPKAILKVLAI | not soluble
MSLLIDFIDETEEVKEEYMSLIREVLEKAAQMENIEDGAEVSVTFVDNERIREINRDYRDKDQPTDVISFAMEEMGEGEMEIVGAEMPRMLGDLIISIPRAKEQAEEYGHSFDRELGFLALHGFLHLLGYDHMTEEDEKEMFGRQKEILEAFGLGR | not soluble
MDDRTEYDVYTDGSYVNGQYAWAYAFVKDGKVHYEDADVGKNPAAATMRNVAGEIAAALYAVKKASQLGVKIRILHDYAGIAFWATGEWKAKNEFTQAYAKLMNQYRGIYSFEKVKAHSGNEFNDYVDMKAKSALGIRDLEHHHHHH | soluble
MNIAKLIDHTILKANTTKEDVMKVIEEAKEYKFASVCINPTWVKLAAEELAGHDVDVCTVIGFPLGASTTETKAFETKDAIAKGATEVDMVINVGALKDGDNELVEKDIYEVVQAAKGKALVKVIIETCLLTDEEKVRACELSVKAGADFVKTSTGFSTGGATAEDIALMRKTVGPNVGVKASGGVRTREDAEKMVAAGASRVGASASVAIVLNDAKGATDNY | not soluble
MPCTDKGMIDLARKTVKLTTLRQGEEATIAGISKACRGANRRRLLDLGFVRGSRIAIDLTSPLGNPTAYVVRGTAIALRRDQARYILIYR | not soluble
MPMKDISDFAANDPNKDYCVYCSRPDGEMQSFEEKKESLTKFIVKTQGADENVAWKIAENMMHKLPAWKEYFN | not soluble
MGSDKIHHHHHHLQVSEMEMLITLSEELNMRRAAERLFVSQPALSQRLVAIERRWATKLFIRSSRGLSITPQGEKVIGLAKEMNRKELELKSELTAEEGAVYGTLRIAVASIMGQYWLPRVLKRFVERYPHVRVQLVTGWSSEMMRHMLEEHFHIGIIRGNPDWKGVKERLFSDPLYLVDSELTSLEQLRKTERPFIQFKSDSTYYQEILEWWQDRFSSPPARTLVVDQIETCKQMALHGIGFAILPESTIHEASEVMQIPLKTSSGKILKRDTWILSTESMLELKQVQAFWDIVKEEGGSQSDGIRN | not soluble
MGCMIQSFRCKSTQAMFEGECPQRFSAIQAVAERKLAQLEAAQTLDFLRSPPGNRLEKLAGDREGQWSIRINAQWRICFTWSDLDPADVEIVDYH | not soluble
MRDALLGALDAGAVCVNVDLAHAGQQAKLEPDTPYGDALGVGAGRNWAHVNSIAYDAKDDSIILSSRHQGIVKIGRDKQVKWILAPSKGWNKQLASKLLKPVDDHGKPLTCDENGKCKDTDFDFTYTQHTAWLSSKGTLTVFDNGDGRGLEQPALPTMKYSRFVEYKIDEKKGTVQQVWEYGKERGYDFYSPITSVVEYQKDRDTMFGFGGSINLFDVGKPTVGKLNEIDYKTKEVKVEIDVLSDKPNQTHYRALLVHPTQMFKLEHHHHHH | soluble
PASQTAANNLGGALNFSVENRTVKRIKFRYNVAKPITTEGLSKLSKGLGEAFLDNTTKAKLAELADPLNARYTGKKPDEVIQAQLDGLEELFADIPPPKDNDKQYKALRDLKRAAVEHRASANKHSVMDNARFETSKTNLSGLSSESILTKIMSSVRDASAPGNATRVAEFMRQDPKLRAMLKEMEGSIGTLARVRLEPKDSLVDKIDEGSLNGTMTQSDLSSMLEDRNEMRIKRLVVFHTATQAENFTSPTPLVSYNSGANVSVTKTLGRINFVYGADQDKPIGYTFDGELSRPSASLKEAAGDLKKEGFELKS | not soluble
MAMDTIAFAYMGGKEYEWLFFEVYDRVRRFYRDVRLPINIVYAGKIILPPGTLIRVETASGFVNMYSFEAVVEALYGKLVEMRDDVNDDSITKIFGITTFPIGSRDRYFDIYKKYLGIQVNVGDYHVLALSIKPFFTENKYLFIERVFKGVLHEIGHLYGLSHCHEDCVMNPPKDIKDWDLRTPTYCNTCLRKLKNKEELMPKLQLLEHHHHHH | not soluble
MTDVLPTIELFDGIAEELDNVSLRRDRQSGTRNVLLRFRALKALDRFNSFRSRFSKAIRLTDSEGAIELWPDSSKLVFGGDDGDELDRVEFVVPIDNEDHWQRFMRFMERYAAANDMTYGDRQALEHHHHHH | soluble
MNVGDRVRVTSSVVVYHHPEHKKTAFDLQGMEGEVAAVLTEWQGRPISANLPVLVKFEQRFKAHFRPDEVTLIED | soluble
MSGDRDDPRYPYPKDDAELRRRLTPMQYEVTQHAATEPPFTGEYTDTEDAGIYHCVVCGTALFESGAKYHSGCGWPSYFKPIDGEVIDEKMDYTHGMTRVEVRCNQCGAHLGHVFEDGPRDKTGLRYCINSAALNFEAKPERK | not soluble
MGLEDDFLLEDADDEKTVEFIKNYLPQELKEKFEDDELYYFLDLIDEYYSESGILDAQPDNDGYVNIDLEEVVAYIVKEAKKDEMGEYDPEEILFVVQGEMEYGNSLGQVD | not soluble
SKKVYAFDVQEQALGKTSQRLSDLGIENTELILDGHENLDHYVREPIRAAIFNLGYLPSADKSVITKPHTTLEAIEKILDRLEVGGRLAIMIYYGHDGGDMEKDAVLEYVIGLDQRVFTAMLYQPLNQINTPPFLVMLEKLQ | not soluble
MNSSILLEVFKNAFSSIAEEMGLVLQRTAFSPNIKERRDFSCAVFDKEGNLVAQAAHIPVHLGSMPLSVKEAIKAFKGEFEEGDMVVLNDPYMGGTHLPDITLVAPFFYKGELLFFLANRAHHADVGGATPGSMPLSTSIFQEGFIIPPLKLMKRGELNEDFMKVFLRNVRTPEEREGDFKAQIMANITGIKRLRELIEREGIEKVLFFSKELMNYSERIIRERIKALPEGEYEFEDYMEDDGYGRKDVKIHLKLKVEKEKLIFDFSKSDDQTRGGINAVRAITLSAVYYAVISLLGSDIPVNEGCFRPLEVITRKGSVVDAEFPAGVAGGNVETSQRIVDVVLGAFSKAIPEKVPAASQGTMNHVTIGGINPENGEPFTYYETIGGGMGASAKGDGESAVHSHMTNTLNTPIEALEHYYPILVTEYSIRKGSGGEGMHRGGDGIVREYEFLTDVEVTVLSERRRLAPYGLFGGKPGMPGINLIKTEEGEKEMPSKFSVYLKKGDRLRVETPGGGGYMKEE | not soluble
THQMNQFYTTGAGRDIFATDEAKQVSAHLANEVDQLAQSLLKKEVYDKTKLFVADFVRQYPFADLSMIRTPAYRAWLEANQISEEDAVTTLGTMPEALGDVSDRLSLVSEQTPKIMTWKAQLLALNSSASIEKVNAALNSLQVTADSMRDFIDNNPEYMRYLAEQMAVELQPLVDDIDQKTEARLSQLGEERQALEEMVARERQEIALIITHEREKFAQDMDRVSQEVVNLAMTKLIELVKST | not soluble
